In patent US20160032279:

T1: C-reactive protein (human), P02741
T1 chain: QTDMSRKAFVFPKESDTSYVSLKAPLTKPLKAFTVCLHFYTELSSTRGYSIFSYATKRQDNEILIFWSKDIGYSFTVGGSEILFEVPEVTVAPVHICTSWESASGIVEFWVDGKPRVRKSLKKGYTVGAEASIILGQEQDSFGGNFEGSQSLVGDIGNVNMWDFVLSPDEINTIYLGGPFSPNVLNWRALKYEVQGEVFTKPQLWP


Experiments:
[1] = biological target: T1, C-reactive protein (human), P02741; assay: FACS; conditions: modification not given
[2] = biological target: T1, C-reactive protein (human), P02741; assay: FACS; conditions: modification not given

Binder	Kd [1]	Kd [2]
YPPRFQYYRFYYRGP [CRP-10]	5 nM	–
EWACNDRGFNCQLQR [CRP-1]	1.2 nM	1 nM
FPIYNQRGFITLASP [CRP-2]	3 nM	–
MIFNSRGFLSLMSSG [CRP-6]	8 nM	–
